Experimental data from publication PMC12299999.

Biological target: HA-Foldon (HA1-521 fused at the C-terminus to the bacteriophage T4 fibritin trimerization motif) (influenza A or B virus (strain not stated for this experiment) | bacteriophage T4)
Test: native gel or EMSA

HA-Foldon (HA1-521 fused at the C-terminus to the bacteriophage T4 fibritin trimerization motif)
stoichiometry N: 3
